Measurements from patent publication US20140196168A1 (SWETREE TECHNOLOGIES, published 2014).

Target: T1, Gal4-DNA Binding Domain fused to the Arabidopsis thaliana Med25 551-680 amino acid domain (bait, pGBKT7-Med25 … (Arabidopsis thaliana))
T1 construct: Expressed in yeast AH109 as a two-hybrid bait; also called G4-DBD-Med25; Med25 bait construct
Experiment: yeast two-hybrid with deletion derivatives

B1: DREB2A amino acids 169-254 (two-hybrid derivative, Gal4 activation domain fusion) (other, Arabidopsis thaliana, UniProt O82132 169-254, looked up, not shown: large carriers)
chain: CESKPFSGGVEPMYCLENGAEEMKRGVKADKHWLSEFEHNYWSDILKEKEKQKEQGIVETCQQQQQDSLSVADYGWPNDVDQSHLD
binding result: binds

B2: ZFHD1 amino acids 1-132 (two-hybrid derivative, Gal4 activation domain fusion) (other, Arabidopsis thaliana, UniProt Q9SEZ1 1-132, looked up, not shown: large carriers)
chain: MDLSSKPQQQLLNSLPIAGELTVTGEMGVCYKECLKNHAANLGGHALDGCGEFMPSPTATSTDPSSLRCAACGCHRNFHRRDPSENLNFLTAPPISSPSGTESPPSRHVSSPVPCSYYTSAPPHHVILSLSS
binding result: binds
